The target in test [1] is T1, mouse ROR1 on mouse 4T1 cells (mouse, UniProt Q9Z139 30-937).
T1 construct: whole, on cells
Briefly: flow cytometry on 4T1 cells expressing mouse ROR1. In general terms: Flow cytometry measures light scatter and fluorescence of single cells or particles in a stream.

Test [2] addresses T2, recombinant His tagged human ROR1 (human, UniProt Q01973 30-403, limits assumed).
T2 construct: Analyte in the BLI assay; also called Human ROR1-His; recombinant ROR1
Briefly: BLI (Octet), FUSE protein loaded on the biosensor, His tagged ROR1 in solution; column 'kdis(1/s)'. The protocol: (§1) As shown in FIGS. 5A-5D, the binding affinities (KD) of TCEs for ROR1 were assessed. We examined the magnitude by which several TCEs and mutants thereof bind to recombinant ROR1. Kinetic binding graphs were generated via Bio-Layer Interferometry (BLI) using an Octet system. For each TCE, the biosensor tips were coated with FUSE proteins at 15 μg/ml and probed with either recombinant His tagged ROR1 at concentrations ranging from 100 pM to 10 μM. […] The binding affinity (KD), on rate (k-on) and off rate (k-dis), are summarized for ROR1 in FIG. 5D.
(§2) Antibodies were prepared in 1×PBS with 0.02% Tween-20 with the final concentration of 15 ug/ml. Human ROR1-His or CD3e-His protein were also prepared, and serial diluted (4-fold dilution ranging from 400 nM to 0.098 nM) in 1×PBS with 0.02% Tween-20. The biosensors were pre-moistened in 200 uL of 1×PBS with 0.02% Tween-20 for 10 minutes. Meanwhile, Octet BLI system (ForteBio) was prewarmed for 30 minutes and the flow rate was set to 1000 rpm. The biosensors (Anti-hIgG Fc Capture biosensor) were soaked in 250 uL of 1×PBS with 0.02% Tween-20 for 60 seconds at 30° C. to get an initial baseline reading. After the 60-second baseline reading, the biosensors were exposed to testing antibody for 300 seconds at 30° C. for the association between antibody and the biosensors (coupling antibody with biosensor). The biosensors with antibody were then exposed to human ROR1 or CD3e in 250 uL of 1×PBS with 0.02% Tween-20 at 30° C. for 300 seconds for the association reaction between antibody and human ROR1 or CD3e (association curve). After 300-second association reaction between antibody and antigen, the biosensors with antibody and antigen were then exposed to 250 uL of 1×PBS with 0.02% Tween-20 at 30° C. for 300 seconds for the dissociation reaction between antibody and […]. The binding affinity was calculated by the built-in data fitting algorithm.
For orientation: Biolayer interferometry detects binding as a change in optical thickness at a sensor tip.

The target in test [3] is T3, cynomolgus (NHP) CD3 on cynomolgus pan-T cells (cynomolgus).
T3 construct: whole, on cells; also called cynomolgus CD3
Briefly: flow cytometry on cynomolgus pan-T cells. How it is done: (§3) The CD3-specific Fab binding arm is presumed responsible for the observed binding. A Hen Egg Lysozyme (HEL)-specific antibody was used as the negative isotype control. Binding was measured via flow cytometry at various concentrations of test articles using a fluorescently labeled secondary antibody specific for the Fc domain of IgG1. The apparent affinity calculated for each test subject based on the data is shown under each graph. […] Binding to mouse CD3 was not tested because the anti-CD3 clone, 1F3-3, incorporated into the TCE is a humanized variant of clone SP34, which was derived in mouse and is well described as not binding mouse CD3.
(§4) Adherent target cells were collected by brief TrypLE treatment while suspension cells were directly collected. Collected cells were washed once with PBS by centrifugation at 500×g for 5 minutes at room temperature and added to V-bottom 96-well plate (200,000-300,000 cells per well). To prepared Live/Dead fixable red, one vial of powder was dissolved into 50 uL of DMSO to make stock solution and then diluted 1 uL of stock Live/Dead fixable red in 1 mL of PBS to prepare the working solution. 100 uL of Live/Dead fixable red working buffer was then added to the cell in the V-bottom 96-well plate (200,000-300,000 cells per well) and incubated for 15 minutes at room temperature. […] The samples were then analyzed on Cytek flow cytometer.

Test [4] deals with T3, cynomolgus (NHP) CD3 on cynomolgus …. Kind of test: flow cytometry on cynomolgus pan T cells, fluorescent secondary antibody to the IgG1 Fc; table row 'Binding EC50 (Kd)'. How it is done:
as §3, §4

Test [5] has as its target T4, human ROR1 (Receptor Tyrosine Kinase-Like Orphan Receptor 1) on the cell surface (human, UniProt Q01973 30-937).
T4 construct: whole, on cells; engineered into B16-F10 (high density) and LS174T (low density) cells; also called B16-F10-ROR1-H; LS174T-ROR1-L
Kind of test: flow cytometry on MDA-MB-231 ROR1 normal cells (about 35,000 ROR1 per cell), secondary antibody to the IgG1 Fc. How it is done: (§5) Binding of 2A11 (black line), 5A1 (dark grey line) and VHH8 (medium grey line) were tested in TCE format 12A. The commercial ROR1 specific Ab reported to bind the ROR1-Ig domain 2A2 (light grey line), served as the positive control and anti-HEL (dotted black line) served as the negative control. To better visualize binding of each test article to the three cells lines, we plotted MFI on the y-axis for each test article for HEK-293 cells (negative control; FIG. 4I), HEK-293 cells transfected with full length human ROR1 (FIG. 4J) and HEK-293 cells transfected with the ROR1 Ig domain linked to the cell surface via the GPI linker from CD59 (FIG. 4K).
as §4, with “temperature. After the 15-minute incubation, the cells were washed twice with PBS by centrifugation at 500 g for 5 minutes at room temperature. The cells were then cultured with antibodies at different concentrations in 100 uL of Biolegend staining buffer at 4° C. for 45 minutes. After the 45-minute incubation with primary antibody, the cells were washed with PBS by centrifugation at 500 g for 5 minutes at room temperature. The cells were then cultured with PE-Cy7-conjugated mouse-anti-human IgG secondary antibody in Biolegend staining buffer at 4° C. for 45 minutes.” for “temperature.”

In test [6] the target is T4, human ROR1 (Receptor Tyrosine …). Briefly: flow cytometry on MDA-MB-231 variants, low ROR1 density; low cell surface density of ROR1. The protocol: as §5, §4
The target is the same in test [7]. Briefly: flow cytometry on MDA-MB-231 ROR1 super high cells (about 2,000,000 ROR1 per cell), secondary antibody to the IgG1 Fc. How it is done: as §5
as §4, with “temperature. After the 15-minute incubation, the cells were washed twice with PBS by centrifugation at 500 g for 5 minutes at room temperature. The cells were then cultured with antibodies at different concentrations in 100 uL of Biolegend staining buffer at 4° C. for 45 minutes. After the 45-minute incubation with primary antibody, the cells were washed with PBS by centrifugation at 500 g for 5 minutes at room temperature. The cells were then cultured with PE-Cy7-conjugated mouse-anti-human IgG secondary antibody in Biolegend staining buffer at 4° C. for 45 minutes.” for “temperature.”

Test [8] has the same target. Briefly: flow cytometry on MDA-MB-231 variants, high ROR1 density; high cell surface density of ROR1. How it is done:
as §5, §4

Test [9] has as its target T2, recombinant His tagged human ROR1. Kind of test: BLI (Octet), FUSE protein loaded on the biosensor, His tagged ROR1 in solution. How it is done:
as §1, §2

For test [10], the target named is T4, human ROR1 (Receptor Tyrosine …). Briefly: flow cytometry on MDA-MB-231 ROR1 high cells (about 500,000 ROR1 per cell), secondary antibody to the IgG1 Fc. How it is done: as §5
as §4, with “temperature. After the 15-minute incubation, the cells were washed twice with PBS by centrifugation at 500 g for 5 minutes at room temperature. The cells were then cultured with antibodies at different concentrations in 100 uL of Biolegend staining buffer at 4° C. for 45 minutes. After the 45-minute incubation with primary antibody, the cells were washed with PBS by centrifugation at 500 g for 5 minutes at room temperature. The cells were then cultured with PE-Cy7-conjugated mouse-anti-human IgG secondary antibody in Biolegend staining buffer at 4° C. for 45 minutes.” for “temperature.”

Test [11] addresses T5, human CD3 on T cells (human, UniProt P07766 23-207; P09693 23-182; P04234 22-171; P20963 22-164).
T5 construct: whole, on cells; also called human CD3 on Jurkat T cells; human CD3 on T cells isolated from human PBMC
Briefly: flow cytometry on human pan T cells (T cells isolated from human PBMC), fluorescent secondary antibody to the IgG1 Fc; table row 'Binding EC50 (Kd)'. The protocol: as §3, §4

The target in test [12] is T5, human CD3 on T cells. Kind of test: flow cytometry on Jurkat T cells, fluorescent secondary antibody to the IgG1 Fc; table row 'Binding EC50 (Kd)'. The protocol:
as §3, §4

Test [13] concerns the target T4, human ROR1 (Receptor Tyrosine …). Kind of test: flow cytometry on MDA-MB-231 ROR1 low cells (about 17,000 ROR1 per cell), secondary antibody to the IgG1 Fc. How it is done: as §5
as §4, with “temperature. After the 15-minute incubation, the cells were washed twice with PBS by centrifugation at 500 g for 5 minutes at room temperature. The cells were then cultured with antibodies at different concentrations in 100 uL of Biolegend staining buffer at 4° C. for 45 minutes. After the 45-minute incubation with primary antibody, the cells were washed with PBS by centrifugation at 500 g for 5 minutes at room temperature. The cells were then cultured with PE-Cy7-conjugated mouse-anti-human IgG secondary antibody in Biolegend staining buffer at 4° C. for 45 minutes.” for “temperature.”

T4 sequence (Q01973 30-937): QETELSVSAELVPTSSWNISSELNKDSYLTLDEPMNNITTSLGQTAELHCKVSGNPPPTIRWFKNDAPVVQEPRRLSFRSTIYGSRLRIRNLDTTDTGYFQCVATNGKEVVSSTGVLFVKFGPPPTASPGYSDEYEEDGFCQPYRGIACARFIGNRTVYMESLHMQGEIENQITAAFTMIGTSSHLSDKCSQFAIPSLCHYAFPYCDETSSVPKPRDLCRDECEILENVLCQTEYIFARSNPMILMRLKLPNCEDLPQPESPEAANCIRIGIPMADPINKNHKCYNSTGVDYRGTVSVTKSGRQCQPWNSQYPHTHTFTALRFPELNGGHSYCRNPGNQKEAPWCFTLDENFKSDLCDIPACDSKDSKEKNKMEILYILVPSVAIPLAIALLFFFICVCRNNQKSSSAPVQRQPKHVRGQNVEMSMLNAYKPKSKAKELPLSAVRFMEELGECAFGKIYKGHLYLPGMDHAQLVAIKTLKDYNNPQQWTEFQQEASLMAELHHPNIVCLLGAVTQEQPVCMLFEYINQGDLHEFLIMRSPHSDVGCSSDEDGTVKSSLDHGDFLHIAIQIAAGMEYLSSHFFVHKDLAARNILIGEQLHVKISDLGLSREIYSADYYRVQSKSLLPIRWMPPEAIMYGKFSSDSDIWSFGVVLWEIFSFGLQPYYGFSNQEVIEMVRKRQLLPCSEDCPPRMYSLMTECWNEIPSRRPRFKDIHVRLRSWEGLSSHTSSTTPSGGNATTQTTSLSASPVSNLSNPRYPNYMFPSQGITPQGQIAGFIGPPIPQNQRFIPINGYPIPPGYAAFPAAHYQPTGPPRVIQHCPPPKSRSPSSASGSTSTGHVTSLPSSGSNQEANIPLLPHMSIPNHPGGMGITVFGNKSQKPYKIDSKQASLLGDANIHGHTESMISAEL
T2 sequence (Q01973 30-403 limits assumed): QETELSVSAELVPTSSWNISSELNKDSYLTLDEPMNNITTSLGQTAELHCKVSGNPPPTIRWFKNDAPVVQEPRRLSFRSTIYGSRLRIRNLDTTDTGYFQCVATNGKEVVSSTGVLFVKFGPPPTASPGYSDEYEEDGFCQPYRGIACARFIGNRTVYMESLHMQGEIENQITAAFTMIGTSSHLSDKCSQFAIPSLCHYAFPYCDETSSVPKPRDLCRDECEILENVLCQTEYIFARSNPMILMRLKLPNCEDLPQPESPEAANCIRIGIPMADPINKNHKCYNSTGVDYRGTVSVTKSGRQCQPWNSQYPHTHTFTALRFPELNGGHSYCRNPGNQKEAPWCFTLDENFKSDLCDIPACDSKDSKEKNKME
T5 sequence (P07766 23-207, chain 1 of 4): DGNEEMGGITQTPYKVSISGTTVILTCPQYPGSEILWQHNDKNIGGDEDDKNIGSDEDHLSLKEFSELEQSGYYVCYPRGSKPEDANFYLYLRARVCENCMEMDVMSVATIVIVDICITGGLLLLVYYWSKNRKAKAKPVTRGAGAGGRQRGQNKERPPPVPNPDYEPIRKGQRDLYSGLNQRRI
T5 sequence (P09693 23-182, chain 2 of 4): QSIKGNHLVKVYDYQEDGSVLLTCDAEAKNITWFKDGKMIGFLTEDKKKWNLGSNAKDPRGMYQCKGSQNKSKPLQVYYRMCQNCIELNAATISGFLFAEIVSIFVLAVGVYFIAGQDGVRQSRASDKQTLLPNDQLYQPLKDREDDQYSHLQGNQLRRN
T5 sequence (P04234 22-171, chain 3 of 4): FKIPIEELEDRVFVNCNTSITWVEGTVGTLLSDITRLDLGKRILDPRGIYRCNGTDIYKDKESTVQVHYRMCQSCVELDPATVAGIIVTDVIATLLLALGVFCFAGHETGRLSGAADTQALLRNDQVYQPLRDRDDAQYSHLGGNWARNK
T5 sequence (P20963 22-164, chain 4 of 4): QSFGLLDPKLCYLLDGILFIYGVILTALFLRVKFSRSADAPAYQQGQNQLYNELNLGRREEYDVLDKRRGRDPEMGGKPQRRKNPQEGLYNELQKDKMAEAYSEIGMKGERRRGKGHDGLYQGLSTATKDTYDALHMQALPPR
T1 sequence (Q9Z139 30-937): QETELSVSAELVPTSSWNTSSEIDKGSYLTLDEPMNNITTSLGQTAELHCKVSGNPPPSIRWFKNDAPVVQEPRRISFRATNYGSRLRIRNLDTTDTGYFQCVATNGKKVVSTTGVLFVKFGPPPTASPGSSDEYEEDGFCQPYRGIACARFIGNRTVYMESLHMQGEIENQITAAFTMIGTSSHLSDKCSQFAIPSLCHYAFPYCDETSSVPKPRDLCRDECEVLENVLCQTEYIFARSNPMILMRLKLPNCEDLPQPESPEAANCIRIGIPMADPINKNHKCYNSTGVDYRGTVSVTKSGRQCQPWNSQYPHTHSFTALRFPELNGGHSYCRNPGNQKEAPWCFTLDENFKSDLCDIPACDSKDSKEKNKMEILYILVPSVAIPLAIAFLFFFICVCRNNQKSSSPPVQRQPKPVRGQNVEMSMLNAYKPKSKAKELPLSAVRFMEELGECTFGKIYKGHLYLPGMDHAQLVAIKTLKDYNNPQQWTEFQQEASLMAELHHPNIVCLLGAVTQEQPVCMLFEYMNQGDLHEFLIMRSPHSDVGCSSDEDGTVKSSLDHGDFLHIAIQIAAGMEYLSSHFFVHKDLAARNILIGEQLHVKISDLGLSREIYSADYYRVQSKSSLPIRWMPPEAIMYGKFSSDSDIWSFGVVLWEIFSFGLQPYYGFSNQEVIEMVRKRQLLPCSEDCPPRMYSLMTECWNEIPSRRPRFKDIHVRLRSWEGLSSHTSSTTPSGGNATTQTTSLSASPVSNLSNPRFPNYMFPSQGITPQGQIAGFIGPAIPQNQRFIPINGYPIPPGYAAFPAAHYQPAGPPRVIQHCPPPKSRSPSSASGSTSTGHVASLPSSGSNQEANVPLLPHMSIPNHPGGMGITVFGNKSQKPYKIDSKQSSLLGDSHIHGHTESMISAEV

B1: FUSE-393 (bispecific antibody, human IgG1, lambda, L234A L235A)
chain: QVQLQESGGGSVQAGGSLKLSCTASGYTNRLKCMGWFRQAPGKEREEIATISTGTGNTYYADSVKGRFTFSQDKVKNTVYLQMNTLKPDDTGMYYCAADVRPDGTTCHYNSGGQGTQVTVSSGGGGSGGGGSGGGGSQVQLQESGGGSVQAGGSLKLSCTASGYTNRLKCMGWFRQAPGKEREEIATISTGTGNTYYADSVKGRFTFSQDKVKNTVYLQMNTLKPDDTGMYYCAADVRPDGTTCHYNSGGQGTQVTVSSEPKSSDKTHTCPPCPAPEAAGGPSVFLFPPKPKDTLMISRTPEVTCVVVDVSHEDPEVKFNWYVDGVEVHNAKTKPREEQYNSTYRVVSVLTVLHQDWLNGKEYKCKVSNKALPAPIEKTISKAKGQPREPQVYTLPPSREEMTKNQVSLSCAVKGFYPSDIAVEWESNGQPENNYKTTPPVLDSDGSFFLVSKLTVDKSRWQQGNVFSCSVMHEALHNRFTQKSLSLSPGK
heavy: EVQLVESGGGLVQPGGSLRLSCAASGFTFSTYAMNWVRQAPGKGLEWVARIRSKYNNYATYYADSVKDRFTISRDDSKNTLYLQMNSLRAEDTAVYYCARHGNFGNSYVSWFAYWGQGTMVTVSSASTKGPSVFPLAPSSKSTSGGTAALGCLVKDYFPEPVTVSWNSGALTSGVHTFPAVLQSSGLYSLSSVVTVPSSSLGTQTYICNVNHKPSNTKVDKKVEPKSCDKTHTCPPCPAPEAAGGPSVFLFPPKPKDTLMISRTPEVTCVVVDVSHEDPEVKFNWYVDGVEVHNAKTKPREEQYNSTYRVVSVLTVLHQDWLNGKEYKCKVSNKALPAPIEKTISKAKGQPREPQVYTLPPSREEMTKNQVSLWCLVKGFYPSDIAVEWESNGQPENNYKTTPPVLDSDGSFFLYSKLTVDKSRWQQGNVFSCSVMHEALHNHYTQKSLSLSPGK
light: QAVVTQEPSLTVSPGGTVTLTCRSSTGAVTTSNYANWVQQKPGQAPRGLIGGTNKRAPGTPARFSGSLLGGKAALTLSGVQPEDEAEYYCALWYSNLWVFGGGTKLTVLGQPKAAPSVTLFPPSSEELQANKATLVCLISDFYPGAVTVAWKADSSPVKAGVETTTPSKQSNNKYAASSYLSLTPEQWKSHRSYSCQVTHEGSTVEKTVAPTECS
notes: Hole chain: 5A1-linker-5A1-Fc; knob chain: anti-CD3 Fab heavy chain-Fc; anti-CD3 light chain; also called format 11A incorporating the 5A1 ROR1-specific VHH
One may read the koff as the first-order rate constant of dissociation. Usually EC50 stands for the midpoint of the concentration-response curve. For orientation: Kd means the free concentration of one partner at which half of the binding sites on the other are occupied at equilibrium, for simple one-to-one binding. In general, kon refers to the second-order rate constant of association. Consider B1, for which the binding result in test [1] is given as “no binding”. The koff in test [2] came out at 0.000468 s⁻¹. Moreover, the “fold difference in apparent binding affinity, cynomolgus against human CD3” value in test [3] was less than 2 fold. The EC50 in test [4] was 3.04 nM; in [5], 281 nM; in test [6] it was roughly 300 nM; in test [7] it was 16.3 nM; in [8], roughly 15 nM; in test [10] it was 26.5 nM. Further, the values for the EC50 (with human CD3 on T cells [11]; with human CD3 on T cells [12]; in test [13]) were 4.45 nM, 3.34 nM and 288 nM, respectively. Also, the Kd in [9] came out at 21.8 nM. Moreover, in test [9], the kon came out at 21500 M⁻¹ s⁻¹.
